EP4201483A1 (Eberhard-Karls-Universität Tübingen, dated 2023)

Target: T1, human heat shock protein Hsp90α (human, UniProt P07900 2-732)
T1 construct: Target protein of the dot blot assay
Assay: dot blot assay, direct interaction with Hsp90α

B1: SNC1 (15aa) (peptide)
peptide: DEIVKELRSRYNIST
B1: no binding.
